Experiment in all cases: MST
In series [1] the target is XPA DBD WT (Homo sapiens, UniProt P23025 98-239).
The target of series [2] is XPA DBD F112C (Homo sapiens, UniProt P23025 98-239, F112C).
The target in series [3] is XPA DBD R130I (Homo sapiens, UniProt P23025 98-239, R130I).
For series [4], the target named is XPA DBD D114Y (Homo sapiens, UniProt P23025 98-239, D114Y).
For series [5], the target named is XPA DBD M113I (Homo sapiens, UniProt P23025 98-239, M113I).
In series [6] the target is XPA DBD Y148D (Homo sapiens, UniProt P23025 98-239, Y148D).

The Kd is the constant that tells how readily two partners part at equilibrium. A lower Kd goes with higher affinity.

Sequence of XPA DBD F112C (P23025 98-239 F112C): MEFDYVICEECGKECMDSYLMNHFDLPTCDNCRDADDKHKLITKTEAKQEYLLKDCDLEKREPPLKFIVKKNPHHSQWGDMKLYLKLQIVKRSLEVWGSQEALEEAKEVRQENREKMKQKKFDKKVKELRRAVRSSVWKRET
Sequence of XPA DBD Y148D (P23025 98-239 Y148D): as the sequence (P23025 98-239 F112C) above, with C15F, Y51D counted along it
Sequence of XPA DBD D114Y (P23025 98-239 D114Y): as the sequence (P23025 98-239 F112C) above, with C15F, D17Y counted along it
Sequence of XPA DBD WT (P23025 98-239): as the sequence (P23025 98-239 F112C) above, with C15F counted along it
Sequence of XPA DBD M113I (P23025 98-239 M113I): as the sequence (P23025 98-239 F112C) above, with C15F, M16I counted along it
Sequence of XPA DBD R130I (P23025 98-239 R130I): as the sequence (P23025 98-239 F112C) above, with C15F, R33I counted along it

TTTTGCGGCCGCTTTTGCGGCCGC (structured_DNA) [NER junction mimic hairpin, 8 bp with 4 nt overhang]: the Kd was 7.7 ± 3.7 µM in series [1]; 9.2 ± 2.2 µM in series [2]; 38 ± 22 µM in series [3]; 8.8 ± 1.7 µM in series [4]; 12 ± 1.9 µM in series [5]. For the same molecule, the binding result in series [6] was “no binding”.

The values are drawn from PMC10946055.
